Experimental data published in article PMC6277958, “Crystal structure of the Agrobacterium tumefaciens type VI effector–immunity complex” (Acta Crystallographica. Section F, Structural Biology …, 2018).

Target: the molecule itself
Test: SEC; AtTai4 alone in solution; conditions not told (purification used a HiLoad Superdex 75 column)

B1: T6SS amidase immunity protein 4 (Tai4) from Agrobacterium tumefaciens, residues 26–129, expressed alone from pCold-GST (natural protein, UniProt A9CGG9 26-129, looked up)
chain: AERTWIFSGAELKQAIEGKLAPDVSDPEMRRLVSVAKSSAYIAGVADLTSGSDWCGAGAVAPHELTDRIYTYLGDMPAEKLDEQAATLVREALKVSFPCEQKSN
notes: codon-optimized synthetic gene; His6-GST tag removed with Turbo3C protease; Disulfide bond between Cys80 and Cys124 in each protomer; also called AtTai4; ATU4346; source: E. coli Rosetta 2 (DE3), purified (Ni-NTA, Resource Q, HiLoad Superdex 75); not shown: His6, N-terminal, cleaved; GST, N-terminal, cleaved
stoichiometry N: 2
